The record followed here is patent publication US11673947B2, “Target tissue-specific antigen-binding molecule” (Chugai Seiyaku Kabushiki Kaisha, priority 2012, dated 2023).

The experiment concerns the target T1, human IL6 receptor (IL-6R) (Homo sapiens, UniProt P08887).
T1 sequence (P08887 20-355 limits assumed): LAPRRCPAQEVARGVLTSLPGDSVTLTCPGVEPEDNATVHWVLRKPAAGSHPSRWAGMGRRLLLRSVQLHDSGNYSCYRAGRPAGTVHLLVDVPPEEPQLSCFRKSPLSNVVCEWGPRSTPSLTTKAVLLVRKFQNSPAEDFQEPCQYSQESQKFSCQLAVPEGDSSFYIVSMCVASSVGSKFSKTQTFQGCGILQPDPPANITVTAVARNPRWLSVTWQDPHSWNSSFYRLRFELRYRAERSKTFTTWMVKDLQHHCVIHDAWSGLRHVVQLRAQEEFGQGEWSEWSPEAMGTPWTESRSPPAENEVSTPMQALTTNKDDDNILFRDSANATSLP
Kind of experiment: Biacore T200, interaction of 6RNMSC1-2_F02 with human IL6 receptor with or without kynurenine. Particulars: 25° C. It counts as binding. The source says:
Biacore T200 (GE Healthcare) was used to analyze the interaction of 6RNMSC1-2_F02 with human IL6 receptor (IL-6R) in antigen-antibody reaction. Sensor chip CM5 (GE Healthcare) was immobilized with an appropriate amount of protein A (Invitrogen) by amine coupling. The antibody of interest was captured by the chip to allow interaction with IL-6R as an antigen. The running buffer used was 20 mmol/1 ACES, 150 mmol/l NaCl, 0.05% (w/v) Tween20, pH 7.4. The interaction with the antigen IL-6R was assayed at 25° C. The buffers used to dilute IL-6R were the running buffer itself, and a buffer prepared by adding 100 μmol/l kynurenine to the running buffer, and in addition a buffer prepared as a control by adding 10 mmol/l ATP to the running buffer.
A diluted IL-6R solution and a running buffer as a blank were injected at a flow rate of […] for one minute to allow interaction of IL-6R with 6RNMSC1-2_F02 captured on the sensor chip. Then, the running buffer was injected at a flow rate of 10 μl/min for one minute. After observation of IL-6R dissociation from the antibody, 10 mmol/l glycine-HCl (pH 1.5) was injected at a flow rate of 30 μl/min for 30 seconds to regenerate the sensor chip. The dissociation constant KD (M) of 6RNMSC1-2_F02 was calculated for IL-6R based on the association rate constant ka (1/Ms) and dissociation rate constant kd (1/s), both of which are kinetic parameters calculated from the sensorgram obtained by the measurement. Each parameter was calculated using the Biacore T200 Evaluation Software (GE Healthcare).
The running buffers used were 20 mmol/1 ACES, 150 mmol/l NaCl, 0.05% (w/v) Tween20, pH 7.4, and 20 mmol/1 ACES, 150 mmol/l NaCl, 0.05% (w/v) Tween20, pH 7.4, 100 μmol/l kynurenine, and assay was carried out at 25° C. IL-6R was immobilized onto Sensor chip CM5 by amine coupling; and 6RNMSC1-2_F02 was diluted to 5 μg/ml with 20 mmol/1 ACES, 150 mmol/l NaCl, 0.05% (w/v) Tween20, pH 7.4, containing 100 μmol/l kynurenine, and it was interacted as an analyte for 180 seconds. Then, the dissociation of […] was monitored under each running buffer condition. In order to compare the degree of dissociation between the respective running buffer conditions, the values were normalized by taking as 100 the amount of 6RNMSC1-2_F02 bound to IL-6R in the presence of 100 μmol/l kynurenine and compared.
Next, Biacore T200 (GE Healthcare) was used to assess the effect of kynurenine concentration on the antigen-antibody reaction between 6RNMSC1-2_F02 and IL-6R. The running buffer used was 20 mmol/1 ACES, 150 mmol/l NaCl, 0.05% (w/v) Tween20, pH 7.4. The antigen-antibody reaction between 6RNMSC1-2_F02 and human IL-6R was assayed at 25° C. IL-6R was immobilized onto sensor chip CM5 by amine coupling; and 6RNMSC1-2_F02 was diluted to 1 μg/ml with 20 mmol/l ACES, 150 mmol/l NaCl, 0.05% (w/v) Tween20, pH 7.4 containing various concentrations of kynurenine, and it was allowed to interact as an analyte for 180 seconds to observe changes in the amount of binding.

B1: 6RNMSC1-2_F02: antibody that binds to hIL-6R in the presence of kynurenine; SEQ ID NOs: 86 and 87 (antibody, listed as Homo sapiens, V domains shown)
VH: QVQLVQSGAEVKKPGSSVKVSCKASGGTFSSYAISWVRQAPGQGLEWMGGIIPIFGTANYAQKFQGRVTITADESTSTAYMELSSLRSEDTAVYYCARDAPVVARPRGAFDIWGQGTMVTVSS
VL: DIVMTQTPLSSPVTLGQPASISCRSSQSLVHSDGNTYLSWLQQRPGQPPRLLIHEISNRFSGVPDRFSGSGAGTNFTLKISRVEAEDVGVYYCMQATQFPRTFGQGTKVEIK
Turning to B1, the “IL-6R binding (sensorgram)” value (1 μmol/l IL-6R, in the absence of kynurenine) is on record as “not detectable”. In addition, the “binding to IL-6R (sensorgram)” value (1 μmol/l IL-6R, in the presence of 100 μmol/l kynurenine) was “binds to IL-6R”. The “effect of kynurenine concentration on amount bound to IL-6R” value (IL-6R immobilized, antibody as analyte for 180 seconds) was “the higher the concentration of kynurenine serving as a switch, the greater the amount of 6RNMSC1-2_F02 bound to IL-6R”. Under “bound with 100 μmol/l kynurenine, then buffer without kynurenine, IL-6R immobilized”, the “dissociation from IL-6R” value is listed as “rapidly dissociates from IL-6R in the absence of kynurenine”. Besides, where the note is “in the presence of 100 μmol/l kynurenine, read-out: dissociation constant KD”, the dissociation constant Kd came out at 1500 nM.

As a reminder, the Kd is the free concentration of one partner at which half of the binding sites on the other are occupied at equilibrium, for simple one-to-one binding.
